{"source": "patent US20220289850", "about": "(published 2022)", "target": "T1, cynomolgus integrin avb8 (cynomolgus)", "T1 chain 1": "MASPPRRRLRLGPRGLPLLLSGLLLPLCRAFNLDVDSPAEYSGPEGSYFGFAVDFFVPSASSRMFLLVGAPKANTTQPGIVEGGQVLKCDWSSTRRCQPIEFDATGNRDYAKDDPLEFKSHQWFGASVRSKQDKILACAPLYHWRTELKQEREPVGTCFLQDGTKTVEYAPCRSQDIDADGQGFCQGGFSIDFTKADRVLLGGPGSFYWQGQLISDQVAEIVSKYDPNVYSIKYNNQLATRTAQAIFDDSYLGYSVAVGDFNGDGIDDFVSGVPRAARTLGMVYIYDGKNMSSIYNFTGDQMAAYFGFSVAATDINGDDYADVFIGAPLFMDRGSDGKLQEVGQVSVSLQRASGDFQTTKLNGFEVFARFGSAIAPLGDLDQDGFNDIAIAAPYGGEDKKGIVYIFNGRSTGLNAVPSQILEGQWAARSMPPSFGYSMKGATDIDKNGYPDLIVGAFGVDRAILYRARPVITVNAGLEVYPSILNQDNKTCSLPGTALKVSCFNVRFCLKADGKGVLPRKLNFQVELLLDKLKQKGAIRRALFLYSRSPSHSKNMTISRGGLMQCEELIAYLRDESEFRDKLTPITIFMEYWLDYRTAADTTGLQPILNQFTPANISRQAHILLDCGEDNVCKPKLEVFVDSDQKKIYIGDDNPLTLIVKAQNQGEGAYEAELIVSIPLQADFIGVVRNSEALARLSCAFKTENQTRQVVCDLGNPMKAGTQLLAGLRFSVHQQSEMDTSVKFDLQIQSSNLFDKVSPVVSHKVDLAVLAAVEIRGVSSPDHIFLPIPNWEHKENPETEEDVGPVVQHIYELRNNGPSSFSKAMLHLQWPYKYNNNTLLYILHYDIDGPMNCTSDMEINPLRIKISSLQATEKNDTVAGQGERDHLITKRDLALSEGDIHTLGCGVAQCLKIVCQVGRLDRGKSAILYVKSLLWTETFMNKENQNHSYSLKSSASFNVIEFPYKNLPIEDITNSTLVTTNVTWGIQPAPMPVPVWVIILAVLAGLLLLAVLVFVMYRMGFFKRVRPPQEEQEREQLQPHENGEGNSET", "T1 chain 2": "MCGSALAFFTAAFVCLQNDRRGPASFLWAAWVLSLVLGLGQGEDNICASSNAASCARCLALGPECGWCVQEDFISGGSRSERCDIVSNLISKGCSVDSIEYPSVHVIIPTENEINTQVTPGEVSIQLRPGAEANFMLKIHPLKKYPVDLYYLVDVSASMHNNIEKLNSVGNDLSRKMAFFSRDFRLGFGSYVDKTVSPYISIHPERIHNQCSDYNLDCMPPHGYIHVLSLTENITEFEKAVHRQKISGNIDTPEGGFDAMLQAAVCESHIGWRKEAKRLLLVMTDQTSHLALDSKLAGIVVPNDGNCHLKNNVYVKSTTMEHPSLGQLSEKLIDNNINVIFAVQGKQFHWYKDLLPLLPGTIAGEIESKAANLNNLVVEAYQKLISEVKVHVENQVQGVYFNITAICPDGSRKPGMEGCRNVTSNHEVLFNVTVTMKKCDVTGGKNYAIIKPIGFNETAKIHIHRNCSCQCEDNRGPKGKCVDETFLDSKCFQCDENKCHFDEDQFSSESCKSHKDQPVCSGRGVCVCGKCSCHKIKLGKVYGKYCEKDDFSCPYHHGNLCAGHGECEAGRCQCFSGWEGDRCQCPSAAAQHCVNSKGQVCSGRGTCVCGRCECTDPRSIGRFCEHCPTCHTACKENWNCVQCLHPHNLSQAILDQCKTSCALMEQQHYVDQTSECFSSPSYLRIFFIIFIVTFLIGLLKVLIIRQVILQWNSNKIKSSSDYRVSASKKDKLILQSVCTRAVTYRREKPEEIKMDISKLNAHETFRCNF", "test": "SPR", "data": [{"binder": "ADWA11 2.4 Fab (antibody, V domains shown) VH: EVQLVESGGGLVQPGGSLRLSCAASGFNIKDYYMNWVRQAPGKGLEWVGWIDPDQGNTIYEPKFQGRFTISADTSKNSAYLQMNSLRAEDTAVYYCARRLLMDYWGQGTLVTVSS VL: DIQMTQSPSSLSASVGDRVTITCRSTKSLSHFNGNTYLFWYQQKPGKAPKRLIYYMSSLASGVPSRFSGSGSGTDFTLTISSLQPEDFATYYCQQSLEYPFTFGGGTKVEIK", "values": [{"measurement": "Kd", "value": "< 0.1", "unit": "nM"}]}]}
